Assay results as given in the MegaScale stability set (Tsuboyama et al. 2023).

B1: HHH_rd2_0155 (parent)
chain: PPDDERKKAEKAARSGNEEKAREILERLGYSEDEARELAKRLR

Variants of: B1
Experiment: folding stability dG (cDNA display proteolysis); higher = more stable
Details: PBS, room temperature

Folding stability dG [kcal/mol]: each site, then its substitutions
A21: E 0.697 | D 0.869 | G 0.961 | F 1.63 | C 1.87
K20: M 2.19 | G 1.66 | W 1.98 | L 2.97 | F 1.92 | H 1.73 | R 1.89 | V 2.05 | Q 1.86 | D 1.33 | A 2.1 | S 1.61 | N 1.21 | E 2.11 | T 1.77 | P 0.917 | I 1.9 | Y 2.11
R6: E 1.54 | L 3 | Q 1.73 | I 2.63 | S 1.3 | M 3.24 | A 1.63 | T 1.54 | P 0.99 | V 2.27 | N 1.17 | F 3.38 | D 0.9 | K 1.75 | Y 3.31 | G 1.11 | W 3.4 | H 2.1
K8: H 1.94 | I 1.84 | T 1.81 | N 1.99 | S 1.84 | G 1.36 | W 1.97 | R 2.15 | L 2.22 | D 1.86 | A 2.18 | V 1.77 | Y 1.62 | Q 2.19 | E 2.26 | M 2.18 | P 1.14 | F 1.75
D4: I 2.17 | N 1.9 | V 2.06 | E 2.26 | S 2.16 | R 1.98 | T 2.17 | H 1.88 | A 2.09 | W 2.09 | Q 2.04 | K 1.95 | L 2.22 | M 1.97 | F 2.02 | G 1.75 | P 1.88 | C 2.15 | Y 1.93
R14: I 1.84 | K 2.08 | A 1.78 | N 1.3 | F 1.6 | M 1.96 | G 1.04 | W 1.77 | L 1.79 | H 1.6 | Y 1.73 | D 1.01 | Q 1.89 | E 1.32 | T 1.41 | V 1.75 | P 0.9 | S 1.44
E10: Y 2.44 | I 2.4 | R 2.03 | T 1.82 | P 1.05 | G 1.58 | D 1.22 | L 2.38 | N 1.29 | F 2.16 | W 2.31 | V 2.23 | M 2.33 | K 1.78 | H 1.75 | Q 1.93 | S 1.66 | A 2.3
S15: T 1.8 | F 1.65 | W 1.83 | D 2.23 | P 0.861 | N 2.09 | M 2.26 | L 1.95 | H 1.83 | K 1.59 | E 2.53 | R 2.05 | Y 1.55 | Q 2.21 | C 2.15 | V 1.55 | I 1.57 | G 1.86 | A 2.26
K7: L 2.17 | W 2.15 | Y 1.91 | I 2.08 | N 1.85 | V 2.02 | H 1.85 | E 1.98 | T 2.17 | C 2.17 | P 1.16 | M 2.21 | S 1.94 | R 2.25 | F 1.89 | G 1.76 | A 2.1 | D 1.7 | Q 2.18
D3: V 1.85 | G 1.98 | K 1.73 | M 2.02 | N 1.98 | L 2.06 | H 1.9 | W 2.1 | F 1.79 | S 2.08 | R 1.75 | P 1.89 | T 1.95 | I 1.95 | E 2.14 | Q 1.92 | Y 1.93
E19: K 2.18 | P 1.61 | S 1.9 | V 1.95 | A 2.3 | I 2.05 | Q 2.05 | C 2.27 | L 2.15 | W 1.94 | H 1.7 | Y 1.79 | G 1.6 | F 1.91 | N 1.81 | D 2.03 | M 2.22 | T 2.05 | R 2.16
E18: T 1.8 | K 0.82 | V 2.3 | A 1.57 | Q 1.5 | H 1.44 | M 2.61 | Y 2.25 | W 2.32 | N 1.17 | S 1.37 | D 1.53 | P 1.23 | I 2.6 | L 2.8 | R 0.996 | F 2.24 | G 1.19
A12: S 1.34 | P 0.925 | F 2.47 | Y 2.6 | N 1.04 | T 1.24 | I 1.61 | W 2.4 | G 1.03 | D 0.919 | V 1.49 | L 2.38 | E 2 | R 1.18 | Q 1.69 | K 1.01 | H 1.9 | M 2.11
A9: D 0.819 | G 1.13 | V 1.29 | Q 0.885 | T 1.05 | W 1.53 | R 0.946 | N 0.839 | F 1.27 | K 0.809 | M 1.05 | L 1.33 | P 1.13 | C 1.45 | E 1.03 | Y 1.47 | I 1.25 | H 1.18 | S 1.02
A13: R 0.884 | Y 1.35 | G 1.07 | F 1.5 | E 0.902 | L 1.54 | N 0.717 | P 0.95 | I 1.46 | H 1 | T 1.15 | Q 0.906 | V 1.19 | S 1.13 | K 0.841 | W 1.82 | D 0.978 | M 1.35
K11: Q 2.36 | S 1.97 | Y 2.14 | P 0.889 | E 2.5 | D 2.38 | L 2.35 | G 1.39 | N 2.11 | T 2.11 | M 2.48 | H 2.32 | R 2.47 | I 2.45 | F 2.01 | C 2.29 | W 2.14 | A 2.43 | V 2.19
G16: T 0.813 | E 0.965 | Y 1.47 | W 1.42 | N 1.23 | A 1.15 | L 1.54 | P 0.825 | V 0.998 | R 1.11 | K 1.22 | D 1.24 | S 1.22 | H 1.32 | Q 1.04 | I 1.2 | M 1.33 | F 1.53
N17: V 0.993 | L 1.65 | M 1.61 | K 1.42 | A 1.4 | S 1.4 | G 1.08 | T 0.954 | D 2.42 | R 1.46 | I 1.13 | Q 1.81 | W 1.98 | Y 1.71 | P 0.962 | F 1.9 | E 1.71 | H 1.77
E5: T 1.73 | K 1.45 | Y 1.81 | N 1.5 | S 1.8 | H 1.5 | F 1.88 | Q 1.91 | R 1.66 | P 1.8 | G 1.65 | A 1.86 | I 1.51 | W 2.35 | L 2.65 | V 1.61 | M 2.33 | D 2.01
